{"source": "patent US20230212319A1", "about": "“NOVEL ANTIGEN BINDING DOMAINS AND SYNTHETIC ANTIGEN RECEPTORS INCORPORATING THE SAME” (University of Southern California, priority 2020, published 2023)", "molecules": {"B1": {"name": "SEQ ID NO: 22099: FHVH attached to TCRa-wt2-opt-6MD via IgCL linker and second FHVH attached to TCRb-wt2-opt-6MD via IgG1-CH1 linker (protein)", "chain": "MALPVTALLLPLALLLHAARPQVQLVESGGGLVQPGGSLRLSCAASGFTFTNHAMSWVRQAPGKGLELVSSISGNGRTTYYADSVKGRFTISRDISKNTLDLQMNSLRAEDTAVYYCAKDGGETLVDSRGQGTLVTVSSLEGQPKANPTVTLFPPSSEELQANKATLVCLISDFYPGAVTVAWKADGSPVKAGVETTKPSKQSNNKYAASSYLSLTPEQWKSHRSYSCQVTHEGSTVEKTVAPTECSGRADCGFTSESYQQGVLSATILYEILLGKATLYAVLVSALVLMAMVKRKDSRGRAKRSGSGATNFSLLKQAGDVEENPGPTSMDWIWRILFLVGAATGAHSFEEVQLLESGGGLVQPGGSLRLSCAASGFTFSSYAMSWVRQAPGKGLEWVSSISGSGDYIYYADSVKGRFTISRDISKNTLYLQMNSLRAEDTAVYYCAKEGTGANSSLADYRGQGTLVTVSSTRASTKGPSVFPLAPSSKSTSGGTAALGCLVKDYFPEPVTVSWNSGALTSGVHTFPAVLQSSGLYSLSSVVTVPSSSLGTQTYICNVNHKPSNTKVDKRVEPKSCIPEDTFFPSPESSCDVKLVEKSFETDTNLNFQNLSVIGFRILLLKVAGFNLLMTLRLWSSRAKRSGSGVKQTLNFDLLKLAGDVESNPGPSRGHMTEYKPTVRLATRDDVPRAVRTLAAAFADYPATRHTVDPDRHIERVTELQELFLTRVGLDIGKVWVADDGAAVAVWTTPESVEAGAVFAEIGPRMAELSGSRLAAQQQMEGLLAPHRPKEPAWFLATVGVSPDHQGKGLGSAVVLPGVEAAERAGVPAFLETSAPRNLPFYERLGFTVTADVEVPEGPRTWCMTRKPGA"}, "B2": {"name": "SEQ ID NO: 22098: FHVH attached to TCRg-6MD via IgCL linker and second FHVH attached to TCRd-6MD via IgG1-CH1 linker (protein)", "chain": "MALPVTALLLPLALLLHAARPQVQLVESGGGLVQPGGSLRLSCAASGFTFTNHAMSWVRQAPGKGLELVSSISGNGRTTYYADSVKGRFTISRDISKNTLDLQMNSLRAEDTAVYYCAKDGGETLVDSRGQGTLVTVSSLEGQPKANPTVTLFPPSSEELQANKATLVCLISDFYPGAVTVAWKADGSPVKAGVETTKPSKQSNNKYAASSYLSLTPEQWKSHRSYSCQVTHEGSTVEKTVAPTECSPIKTDVITMDPKDNCSKDANDTLLLQLTNTSAYYMYLLLLLKSVVYFAIITCCLLRRTAFCCNGEKSRAKRSGSGATNFSLLKQAGDVEENPGPTSMDWIWRILFLVGAATGAHSFEEVQLLESGGGLVQPGGSLRLSCAASGFTFSSYAMSWVRQAPGKGLEWVSSISGSGDYIYYADSVKGRFTISRDISKNTLYLQMNSLRAEDTAVYYCAKEGTGANSSLADYRGQGTLVTVSSTRASTKGPSVFPLAPSSKSTSGGTAALGCLVKDYFPEPVTVSWNSGALTSGVHTFPAVLQSSGLYSLSSVVTVPSSSLGTQTYICNVNHKPSNTKVDKRVEPKSCEVKTDSTDHVKPKETENTKQPSKSCHKPKAIVHTEKVNMMSLTVLGLRMLFAKTVAVNFLLTAKLFFLRAKRSGSGVKQTLNFDLLKLAGDVESNPGPSRGHMTEYKPTVRLATRDDVPRAVRTLAAAFADYPATRHTVDPDRHIERVTELQELFLTRVGLDIGKVWVADDGAAVAVWTTPESVEAGAVFAEIGPRMAELSGSRLAAQQQMEGLLAPHRPKEPAWFLATVGVSPDHQGKGLGSAVVLPGVEAAERAGVPAFLETSAPRNLPFYERLGFTVTADVEVPEGPRTWCMTRKPGA"}, "B3": {"name": "SEQ ID NO: 22096: FHVH attached to TCRg-6MD via IgCL linker and second FHVH attached to TCRd-6MD via IgG1-CH1 linker (protein)", "chain": "MALPVTALLLPLALLLHAARPQLQLQESGPGLVKPSETLSLTCTVSGDSISSGDYYWGWIRQPPGKGLEWIGHIYYSGVTYYNPSLKSRVTISVDTSRNQFSLKLSSVTAADTAVYYCTREDSSNWRSRGQGTLVTVSSLEGQPKANPTVTLFPPSSEELQANKATLVCLISDFYPGAVTVAWKADGSPVKAGVETTKPSKQSNNKYAASSYLSLTPEQWKSHRSYSCQVTHEGSTVEKTVAPTECSPIKTDVITMDPKDNCSKDANDTLLLQLTNTSAYYMYLLLLLKSVVYFAIITCCLLRRTAFCCNGEKSRAKRSGSGATNFSLLKQAGDVEENPGPTSMDWIWRILFLVGAATGAHSFEVQLLESGGGLIQPGGSLRLSCAASGFTFSSHAMTWVRQAPGKGLEWVSAISGSGDYTHYADSVKGRFTISRDNSKNTVYLQMNSLRAEDSAVYYCAKDEDGGSLLGHRGQGTLVTVSSTRASTKGPSVFPLAPSSKSTSGGTAALGCLVKDYFPEPVTVSWNSGALTSGVHTFPAVLQSSGLYSLSSVVTVPSSSLGTQTYICNVNHKPSNTKVDKRVEPKSCEVKTDSTDHVKPKETENTKQPSKSCHKPKAIVHTEKVNMMSLTVLGLRMLFAKTVAVNFLLTAKLFFLRAKRSGSGVKQTLNFDLLKLAGDVESNPGPSRGHMTEYKPTVRLATRDDVPRAVRTLAAAFADYPATRHTVDPDRHIERVTELQELFLTRVGLDIGKVWVADDGAAVAVWTTPESVEAGAVFAEIGPRMAELSGSRLAAQQQMEGLLAPHRPKEPAWFLATVGVSPDHQGKGLGSAVVLPGVEAAERAGVPAFLETSAPRNLPFYERLGFTVTADVEVPEGPRTWCMTRKPGA"}, "B4": {"name": "SEQ ID NO: 22010: two AABD attached in tandem to one of the two TCR constant chains (protein)", "chain": "MALPVTALLLPLALLLHAARPLEGKPIPNPLLGLDSTGSGEDLKNVFPPEVAVFEPSKAEIAHTQKATLVCLATGFYPDHVELSWWVNGKEVHSGVCTDPQPLKEQPALNDSRYCLSSRLRVSATFWQNPRNHFRCQVQFYGLSENDEWTQDRAKPVTQIVSAEAWGRADCGITSASYHQGVLSATILYEILLGKATLYAVLVSALVLMAMVKRKDSRGRAKRSGSGATNFSLLKQAGDVEENPGPTSTMALPVTALLLPLALLLHAARPQLQLQESGPGLVKPSETLALTCNVSGGSISSSSYYWGWIRQPPGKRLEWIGSIYYSGSTYFNPSLKSRVTISVDTSKNQFSLKLSSVTAADTAVYYCAGGDYYGPVGQWPSDYRGQGTLVTVSSGSGGGGSGGGGSFEVQLLESGGGLVQPGGSLRLSCAASGFIFSSYAMSWVRQAPGKGQEWVSGVSGTGVNTYYADSVKGRFTISRDNSKNTLYLQMNSLRAEDTAVYYCASGKGWDSGSWYEDYRGQGTLVTVSSTREQKLISEEDGSGIQNPDPAVYQLRDSKSSDKSVCLFTDFDSQTNVSQSKDSDVYITDKCVLDMRSMDFKSNSAVAWSNKSDFACANAFNNSIIPEDTFFPSSDVPCDVKLVEKSFETDTNLNFQNLSVIGFRILLLKVAGFNLLMTLRLWSSRAKRSGSGVKQTLNFDLLKLAGDVESNPGPSRGHMTEYKPTVRLATRDDVPRAVRTLAAAFADYPATRHTVDPDRHIERVTELQELFLTRVGLDIGKVWVADDGAAVAVWTTPESVEAGAVFAEIGPRMAELSGSRLAAQQQMEGLLAPHRPKEPAWFLATVGVSPDHQGKGLGSAVVLPGVEAAERAGVPAFLETSAPRNLPFYERLGFTVTADVEVPEGPRTWCMTRKPGA"}}, "data": [{"tested_on": "target antigen-expressing cell line", "experiment": "Jurkat NFAT-GFP (JNG) assay: induction of NFAT promoter driven GFP expression", "format": "cell-based", "conditions": "SAR-expressing JNG cells co-cultured with cell lines expressing their target antigen(s)", "method": "Induction ofNFAT promoter driven GFP expression. […] Cellular supernatant is collected and assayed for the induction of cytokines (e.g., IL2).\nCellular supernatant is collected and assayed for the induction of cytokines (e.g., IL2).\nJNG (Jurkat cells expressing EGFP under an NFAT promoter) were infected with lentiviral vectors encoding different single chain and multi-chain SARs by spinfection in the presence of 8 µg/ml of Polybrene® (Sigma, Catalog no. H9268). The Jurkat-NFAT-GFP cells are engineered in such a way that the IL-2 promoter, which carries NFAT binding sites, is cloned upstream of the GFP gene. These cells have been used to study signaling via TCR and CAR. The different SARs were stably expressed in Jurkat NFAT-GFP cells by lentiviral mediated gene transfer, followed by selection with puromycin or blasticidin. No drug selection was used in case the construct lacked an antibiotic resistance gene. The SAR-expressing Jurkat-NFAT-GFP cells were cocultured with the target cells at E:T ratio of approximately 1:2 for approximately 4 hours to 18 hours. When the interaction between SIRs and their target antigen results in activation of the NFAT pathway, GFP expression is induced. […] GFP expression was monitored by FACS analysis. The Jurkat-NFAT-GFP (parental) cells were used as control. The structure of different constructs can be determined based on their names. […] The sequence of the other constructs in the table can be similarly determined from their names and by referring to the different Tables of this disclosure that provide the names and SEQ ID NO of the different modules. Alternatively, the composition and modular architecture of the different SAR constructs can be determined from their sequences by bioinformatics tools, including using nucleic acid and amino acids homology searches. A SAR is considered positive in the assay in case the SAR expressing Jurkat-NFAT-GFP cells show greater % GFP positive cells when cultured with the target cell line as compared to parental Jurkat-NFAT-GFP cells. […] In general, the number +/-, +, 2+, 3+, 4+, 5+ refer to approximately 5%, 10%, 20%, 30%, 40% and 50% GFP positive cells. The % of GFP induction in the above assay is dependent not only the relative strength of the SAR but also, among other factors, on the relative level of expression of the SAR in the JNG cells and the relative level of expression of the target antigen in the target cell line. To control for the difference in gene transduction efficiency of the different SAR constructs, the experiment was conducted with JNG cells transduced with SAR constructs co-expressing a drug resistance gene (e.g., puromycin or PAC) followed by drug selection to generate a stable population of SAR-expressing cells. It is to be noted that the drug resistance gene (e.g., PAC) in the SAR constructs is optional and in vivo studies were conducted with SAR constructs lacking the PAC gene.", "values": [{"molecule": "B1", "GFP induction / activity in JNG assay": "good activity"}, {"molecule": "B2", "GFP induction / activity in JNG assay": "best activity"}, {"molecule": "B3", "GFP induction / activity in JNG assay": "best activity"}, {"molecule": "B4", "GFP induction / activity in JNG assay": "only weak and inconsistent activity"}]}]}
